Columns and labels:
[1] = molecular target: Src^FL WT (full-length Src, residues 1-536, non-phosphorylated, lacking an N-terminal myristoyl group) (human, UniProt P12931 1-536); assay: pull-down
[2] = molecular target: Src^CD WT (catalytic domain of Src, residues 261-536) (human, UniProt P12931 261-536); assay: pull-down

B1: SH4^SNAP WT (residues 1-18 of Src fused to the N-terminus of SNAP-tag through a LPETG linker) (domain or fragment, human)
chain: MGSNKSKPKDASQRRRSLLPETG
B1: binds [1]; binds [2].

— article PMC6474823 (Molecular cell, 2019)
